Test results reported in PMC4811778 (eLife, 2016).

Target: T1, ElaB (E. coli, UniProt P0AEH5 1-101)
T1 construct: ElaB, E. coli, paralogue of YqjD, inner membrane-associated; source: endogenous, E. coli (MG1665) lysate, log phase and stationary phase
T1 sequence (looked up): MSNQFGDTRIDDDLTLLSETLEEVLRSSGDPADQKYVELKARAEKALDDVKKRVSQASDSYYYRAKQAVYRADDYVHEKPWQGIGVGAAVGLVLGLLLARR
Experiment: cross-linking; quantitative CXMS: log phase and stationary phase E. coli (MG1665) lysates (100 µg each, 50 mM HEPES pH 8.0, 150 mM NaCl) cross-linked with [d0]-/[d6]-bAL2 at RT for 1 hr, forward and reverse labelling; pLink, pQuant
Settings: partners not purified

B1: YqjD (natural protein, E. coli, UniProt P64581 1-101, looked up)
chain: MSKEHTTEHLRAELKSLSDTLEEVLSSSGEKSKEELSKIRSKAEQALKQSRYRLGETGDAIAKQTRVAAARADEYVRENPWTGVGIGAAIGVVLGVLLSRR
notes: source: endogenous, E. coli (MG1665) lysate, log phase and stationary phase
  fold increase of the cross-link in the stationary phase over the log phase: ≥ 10 fold
